T1: ClfA (Staphylococcus aureus)
T1 chain: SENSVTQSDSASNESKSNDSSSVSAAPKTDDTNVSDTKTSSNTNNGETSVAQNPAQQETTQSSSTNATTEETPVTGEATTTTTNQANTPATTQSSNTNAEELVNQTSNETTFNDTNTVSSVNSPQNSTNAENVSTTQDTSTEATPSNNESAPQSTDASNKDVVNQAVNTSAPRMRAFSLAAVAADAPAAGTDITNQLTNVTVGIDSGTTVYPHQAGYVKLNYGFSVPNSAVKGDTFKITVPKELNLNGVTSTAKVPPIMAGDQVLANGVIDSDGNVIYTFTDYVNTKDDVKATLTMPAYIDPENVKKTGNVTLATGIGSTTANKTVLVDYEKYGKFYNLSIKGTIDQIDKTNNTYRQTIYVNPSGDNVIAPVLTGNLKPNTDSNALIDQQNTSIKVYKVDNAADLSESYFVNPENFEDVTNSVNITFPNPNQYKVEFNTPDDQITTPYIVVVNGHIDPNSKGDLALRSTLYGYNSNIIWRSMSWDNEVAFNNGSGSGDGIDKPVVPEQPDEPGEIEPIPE

T2: S. aureus clumping factor A, founder genotype ClfA002 (Staphylococcus aureus, UniProt Q99VJ4 221-559)
T2 sequence: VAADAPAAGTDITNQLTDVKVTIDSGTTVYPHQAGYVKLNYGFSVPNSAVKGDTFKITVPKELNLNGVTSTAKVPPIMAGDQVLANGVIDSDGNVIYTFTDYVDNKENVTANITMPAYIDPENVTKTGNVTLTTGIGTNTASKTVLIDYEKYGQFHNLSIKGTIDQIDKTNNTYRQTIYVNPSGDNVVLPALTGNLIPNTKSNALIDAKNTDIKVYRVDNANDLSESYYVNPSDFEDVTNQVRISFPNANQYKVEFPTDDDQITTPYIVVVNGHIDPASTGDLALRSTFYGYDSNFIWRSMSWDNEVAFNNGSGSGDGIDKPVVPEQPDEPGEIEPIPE


What was measured:
ClfA [1] = target: T1, ClfA; test: fibrinogen binding inhibition ('Fg IH' / 'fibrinogen assay'); blocked ligand fibrinogen; sample after 1 week of light exposure; ClfA genotype not stated; printed in both tables
ClfA [2] = target: T1, ClfA; test: fibrinogen binding inhibition ('Fg IH' / 'fibrinogen assay'); blocked ligand fibrinogen; sample after 2 weeks of light exposure; ClfA genotype not stated; printed in both tables
ClfA [3] = target: T1, ClfA; test: fibrinogen binding inhibition ('Fg IH' / 'fibrinogen assay'); blocked ligand fibrinogen; sample before light exposure; ClfA genotype not stated; printed in both tables
ClfA [4] = target: T1, ClfA; test: fibrinogen binding inhibition ('IC50 (ug/ml) fibrinogen assay'); blocked ligand fibrinogen; sample after 2 weeks of light exposure; ClfA genotype not stated; printed only in the right-hand table
[5] = target: T2, S. aureus clumping factor A, founder …; test: ELISA, inhibition of ClfA binding to immobilised fibrinogen
[6] = target: T3, S. aureus clumping factor A, founder genotype ClfA004 (Staphylococcus aureus); test: as above
T3 construct: range 221-559

[7] = target: T2, S. aureus clumping factor A, founder …
[8] = target: T2, S. aureus clumping factor A, founder …; test: fibrinogen binding inhibition assay (ClfA binding to fibrinogen)
[9] = target: T3, S. aureus clumping factor A, founder …; test: as above
[10] = target: T2, S. aureus clumping factor A, founder …; test: Biacore
[11] = target: T3, S. aureus clumping factor A, founder …; test: Biacore
[12] = target: T2, S. aureus clumping factor A, founder …; test: affinity kinetics, method not named (Table 1)
[13] = target: T3, S. aureus clumping factor A, founder …; test: affinity kinetics, method not named (Table 1)
[14] = target: T2, S. aureus clumping factor A, founder …; test: Biacore, antibody captured, ClfA as sample
[15] = target: T3, S. aureus clumping factor A, founder …; test: Biacore, antibody captured, ClfA as sample
[16] = target: T2, S. aureus clumping factor A, founder …; test: inhibition of ClfA binding to fibrinogen
[17] = target: T3, S. aureus clumping factor A, founder …; test: inhibition of ClfA binding to fibrinogen
[18] = target: T2, S. aureus clumping factor A, founder …; test: fibrinogen binding inhibition assay (FIG. 1B)
[19] = target: T3, S. aureus clumping factor A, founder …; test: fibrinogen binding inhibition assay (FIG. 1B)
[20] = target: T3, S. aureus clumping factor A, founder …

Binder | IC50 (ClfA [1]) [µg/mL] | IC50 (ClfA [3]) [µg/mL] | Kd [14] [nM] | koff [14] [s⁻¹] | kon [14] [M⁻¹ s⁻¹] | Kd [15] [nM] | koff [15] [s⁻¹] | kon [15] [M⁻¹ s⁻¹] | IC50 [16] [µg/mL] | IC50 [17] [µg/mL] | further results
N3F (antibody, copies: 2 + 2) heavy: QVQLQESGPGLVKPSETLSLTCTVSGGSIQNSYWSWIRQPPGKGLEWIGYLYSSGRTNYTPSLKSRVTISVDTSKNQFSLKLSSVTAADTAVYYCARTHLGGFHYGGGFWFDPWGQGTLVTVSSASTKGPSVFPLAPSSKSTSGGTAALGCLVKDYFPEPVTVSWNSGALTSGVHTFPAVLQSSGLYSLSSVVTVPSSSLGTQTYICNVNHKPSNTKVDKRVEPKSCDKTHTCPPCPAPELLGGPSVFLFPPKPKDTLMISRTPEVTCVVVDVSHEDPEVKFNWYVDGVEVHNAKTKPREEQYNSTYRVVSVLTVLHQDWLNGKEYKCKVSNKALPAPIEKTISKAKGQPREPQVYTLPPSREEMTKNQVSLTCLVKGFYPSDIAVEWESNGQPENNYKTTPPVLDSDGSFFLYSKLTVDKSRWQQGNVFSCSVMHEACSFHLCQKSLSLSPGK light: DIQMTQSPSSLSASVGDRVTITCRASQSITSYLNWYQQKPGKAPKLLIYASSSLQSGVPSRFSGSGSGTDFTLTISSLQPEDFATYYCQESYSTPPTFGQGTKVEIKRTVAAPSVFIFPPSDEQLKSGTASVVCLLNNFYPREAKVQWKVDNALQSGNSQESVTEQDSKDSTYSLSSTLTLSKADYEKHKVYACEVTHQGLSSPVTKSFNRGEC | 19.9 | 9.95 | – | – | – | – | – | – | – | – | IC50 (ClfA [2]): 27.8 µg/mL
N3Y (antibody) heavy chain: QVQLQESGPGLVKPSETLSLTCTVSGGSIQNSYWSWIRQPPGKGLEWIGYLYSSGRTNYTPSLKSRVTISVDTSKNQFSLKLSSVTAADTAVYYCARTHLGGFHYGGGFWFDPWGQGTLVTVSSASTKGPSVFPLAPSSKSTSGGTAALGCLVKDYFPEPVTVSWNSGALTSGVHTFPAVLQSSGLYSLSSVVTVPSSSLGTQTYICNVNHKPSNTKVDKRVEPKSCDKTHTCPPCPAPELLGGPSVFLFPPKPKDTLMISRTPEVTCVVVDVSHEDPEVKFNWYVDGVEVHNAKTKPREEQYNSTYRVVSVLTVLHQDWLNGKEYKCKVSNKALPAPIEKTISKAKGQPREPQVYTLPPSREEMTKNQVSLTCLVKGFYPSDIAVEWESNGQPENNYKTTPPVLDSDGSFFLYSKLTVDKSRWQQGNVFSCSVMHEACSYHLCQKSLSLSPGK light chain: DIQMTQSPSSLSASVGDRVTITCRASQSITSYLNWYQQKPGKAPKLLIYASSSLQSGVPSRFSGSGSGTDFTLTISSLQPEDFATYYCQESYSTPPTFGQGTKVEIKRTVAAPSVFIFPPSDEQLKSGTASVVCLLNNFYPREAKVQWKVDNALQSGNSQESVTEQDSKDSTYSLSSTLTLSKADYEKHKVYACEVTHQGLSSPVTKSFNRGEC | 9.2 | 6.28 | – | – | – | – | – | – | – | – | IC50 (ClfA [4]): 12.7 µg/mL
SAR114 anti-ClfA monoclonal antibody (antibody) heavy: not shown light: DIQMTQSPSSLSASVGDRVTITCRASQSITSYLNWYQQKPGKAPKLLIYASSSLQSGVPSRFSGSGSGTDFTLTISSLQPEDFATYYCQESYSTPPTFGQGTKVEIKRTVAAPSVFIFPPSDEQLKSGTASVVCLLNNFYPREAKVQWKVDNALQSGNSQESVTEQDSKDSTYSLSSTLTLSKADYEKHKVYACEVTHQGLSSPVTKSFNRGEC | – | – | 0.0477 | 0.000182 | 3.82e+06 | 0.0209 | 6.21e-05 | 2.97e+06 | 2.91 | 1.72 | IC50 [5]: 14.3 nM; IC50 [6]: 8.08 nM; IC50 (read off the curve) [7]: ~10000 nM; IC50 [8]: 1.16 µg/mL; IC50 [9]: 1.63 µg/mL; fold tighter binding (KD) than SAR114-N3 [10]: ~10 fold; fold tighter binding (KD) than SAR114-N3 [11]: ~10 fold; Kd [12]: 0.0448 nM; koff [12]: 9.53e-05 s⁻¹; kon [12]: 2.13e+06 M⁻¹ s⁻¹; Kd [13]: 0.00115 nM; koff [13]: 6.46e-06 s⁻¹; kon [13]: 5.62e+06 M⁻¹ s⁻¹; IC50 [18]: ~20000 nM; IC50 [19]: ~20000 nM; IC50 (read off the curve) [20]: ~30000 nM
SAR114-N3 (antibody) heavy: QVQLQESGPGLVKPSETLSLTCTVSGGSIQNSYWSWIRQPPGKGLEWIGYLYSSGRTNYTPSLKSRVTISVDTSKNQFSLKLSSVTAADTAVYYCARTHLGGFHYGGGFWFDPWGQGTLVTVSSASTKGPSVFPLAPSSKSTSGGTAALGCLVKDYFPEPVTVSWNSGALTSGVHTFPAVLQSSGLYSLSSVVTVPSSSLGTQTYICNVNHKPSNTKVDKRVEPKSCDKTHTCPPCPAPELLGGPSVFLFPPKPKDTLMISRTPEVTCVVVDVSHEDPEVKFNWYVDGVEVHNAKTKPREEQYNSTYRVVSVLTVLHQDWLNGKEYKCKVSNKALPAPIEKTISKAKGQPREPQVYTLPPSREEMTKNQVSLTCLVKGFYPSDIAVEWESNGQPENNYKTTPPVLDSDGSFFLYSKLTVDKSRWQQGNVFSCSVMHEACSWHLCQKSLSLSPGK light: DIQMTQSPSSLSASVGDRVTITCRASQSITSYLNWYQQKPGKAPKLLIYASSSLQSGVPSRFSGSGSGTDFTLTISSLQPEDFATYYCQESYSTPPTFGQGTKVEIKRTVAAPSVFIFPPSDEQLKSGTASVVCLLNNFYPREAKVQWKVDNALQSGNSQESVTEQDSKDSTYSLSSTLTLSKADYEKHKVYACEVTHQGLSSPVTKSFNRGEC | – | – | 0.265 | 0.00104 | 3.92e+06 | 0.316 | 0.000756 | 2.39e+06 | 3.11 | 2.52 | –

— US20240352098A1 (AstraZeneca / MedImmune, published 2024)
